Assay results reported in patent US20130058937A1 (Hoffmann-La Roche, published 2013).

B1: 2+1 IgG Crossfab (N-terminal); VL/VH exchange (MCSP (LC007)/huCD3) (bispecific antibody)
chain 1: DIQMTQSPSSLSASVGDRVTITCRASQDIRNYLNWYQQKPGKAPKLLIYYTSRLESGVPSRFSGSGSGTDYTLTISSLQPEDFATYYCQQGNTLPWTFGQGTKVEIKSSASTKGPSVFPLAPSSKSTSGGTAALGCLVKDYFPEPVTVSWNSGALTSGVHTFPAVLQSSGLYSLSSVVTVPSSSLGTQTYICNVNHKPSNTKVDKKVEPKSCGGGGSGGGGSEVQLQESGPGLVKPSQSLSLTCSVTGYSITSGYYWNWIRQFPGNKLEWMGYITYDGSNNYNPSLKNRISITRDTSKNQFFLKLNSVTTEDTATYYCADFDYWGQGTTLTVSSASTKGPSVFPLAPSSKSTSGGTAALGCLVKDYFPEPVTVSWNSGALTSGVHTFPAVLQSSGLYSLSSVVTVPSSSLGTQTYICNVNHKPSNTKVDKKVEPKSCDKTHTCPPCPAPEAAGGPSVFLFPPKPKDTLMISRTPEVTCVVVDVSHEDPEVKFNWYVDGVEVHNAKTKPREEQYNSTYRVVSVLTVLHQDWLNGKEYKCKVSNKALGAPIEKTISKAKGQPREPQVCTLPPSRDELTKNQVSLSCAVKGFYPSDIAVEWESNGQPENNYKTTPPVLDSDGSFFLVSKLTVDKSRWQQGNVFSCSVMHEALHNHYTQKSLSLSPGK
chain 2: EVQLVESGGGLVQPGGSLRLSCAASGYSFTGYTMNWVRQAPGKGLEWVALINPYKGVSTYNQKFKDRFTISVDKSKNTAYLQMNSLRAEDTAVYYCARSGYYGDSDWYFDVWGQGTLVTVSSASVAAPSVFIFPPSDEQLKSGTASVVCLLNNFYPREAKVQWKVDNALQSGNSQESVTEQDSKDSTYSLSSTLTLSKADYEKHKVYACEVTHQGLSSPVTKSFNRGEC
chain 3: DIVLTQSPSSLSASLGDRVTISCSASQGIRNYLNWYQQRPDGTVKLLIYYTSSLHSGVPSRFSGSGSGTDYSLTISNLEPEDIATYYCQQYSKLPWTFGGGTKLEIKRTVAAPSVFIFPPSDEQLKSGTASVVCLLNNFYPREAKVQWKVDNALQSGNSQESVTEQDSKDSTYSLSSTLTLSKADYEKHKVYACEVTHQGLSSPVTKSFNRGEC
chain 4: not shown
notes: Two MCSP Fabs, one CD3 Crossfab fused to the N-terminus of one Fab; also called anti-MCSP/anti-huCD3; CD3-MCSP 2+1 IgG Crossfab (N-terminal)
B2: 2+1 IgG Crossfab (N-terminal), inverted; CL/CH1 exchange (MCSP (LC007)/huCD3) (bispecific antibody)
chain 1: DIVLTQSPSSLSASLGDRVTISCSASQGIRNYLNWYQQRPDGTVKLLIYYTSSLHSGVPSRFSGSGSGTDYSLTISNLEPEDIATYYCQQYSKLPWTFGGGTKLEIKRTVAAPSVFIFPPSDEQLKSGTASVVCLLNNFYPREAKVQWKVDNALQSGNSQESVTEQDSKDSTYSLSSTLTLSKADYEKHKVYACEVTHQGLSSPVTKSFNRGEC
chain 2: DIQMTQSPSSLSASVGDRVTITCRASQDIRNYLNWYQQKPGKAPKLLIYYTSRLESGVPSRFSGSGSGTDYTLTISSLQPEDFATYYCQQGNTLPWTFGQGTKVEIKSSASTKGPSVFPLAPSSKSTSGGTAALGCLVKDYFPEPVTVSWNSGALTSGVHTFPAVLQSSGLYSLSSVVTVPSSSLGTQTYICNVNHKPSNTKVDKKVEPKSC
chain 3: EVQLQESGPGLVKPSQSLSLTCSVTGYSITSGYYWNWIRQFPGNKLEWMGYITYDGSNNYNPSLKNRISITRDTSKNQFFLKLNSVTTEDTATYYCADFDYWGQGTTLTVSSASTKGPSVFPLAPSSKSTSGGTAALGCLVKDYFPEPVTVSWNSGALTSGVHTFPAVLQSSGLYSLSSVVTVPSSSLGTQTYICNVNHKPSNTKVDKKVEPKSCDKTHTCPPCPAPEAAGGPSVFLFPPKPKDTLMISRTPEVTCVVVDVSHEDPEVKFNWYVDGVEVHNAKTKPREEQYNSTYRVVSVLTVLHQDWLNGKEYKCKVSNKALGAPIEKTISKAKGQPREPQVCTLPPSRDELTKNQVSLSCAVKGFYPSDIAVEWESNGQPENNYKTTPPVLDSDGSFFLVSKLTVDKSRWQQGNVFSCSVMHEALHNHYTQKSLSLSPGK
chain 4: not shown
notes: also called the inverted construct; CD3/MCSP 2+1 IgG Crossfab (N-terminal), inverted
B3: CD3-MCSP 1+1 CrossMab; CL/CH1 exchange (MCSP (LC007)/huCD3) (bispecific antibody)
chain 1: DIVLTQSPSSLSASLGDRVTISCSASQGIRNYLNWYQQRPDGTVKLLIYYTSSLHSGVPSRFSGSGSGTDYSLTISNLEPEDIATYYCQQYSKLPWTFGGGTKLEIKRTVAAPSVFIFPPSDEQLKSGTASVVCLLNNFYPREAKVQWKVDNALQSGNSQESVTEQDSKDSTYSLSSTLTLSKADYEKHKVYACEVTHQGLSSPVTKSFNRGEC
chain 2: DIQMTQSPSSLSASVGDRVTITCRASQDIRNYLNWYQQKPGKAPKLLIYYTSRLESGVPSRFSGSGSGTDYTLTISSLQPEDFATYYCQQGNTLPWTFGQGTKVEIKSSASTKGPSVFPLAPSSKSTSGGTAALGCLVKDYFPEPVTVSWNSGALTSGVHTFPAVLQSSGLYSLSSVVTVPSSSLGTQTYICNVNHKPSNTKVDKKVEPKSC
chain 3: not shown
chain 4: EVQLQESGPGLVKPSQSLSLTCSVTGYSITSGYYWNWIRQFPGNKLEWMGYITYDGSNNYNPSLKNRISITRDTSKNQFFLKLNSVTTEDTATYYCADFDYWGQGTTLTVSSASTKGPSVFPLAPSSKSTSGGTAALGCLVKDYFPEPVTVSWNSGALTSGVHTFPAVLQSSGLYSLSSVVTVPSSSLGTQTYICNVNHKPSNTKVDKKVEPKSCDKTHTCPPCPAPEAAGGPSVFLFPPKPKDTLMISRTPEVTCVVVDVSHEDPEVKFNWYVDGVEVHNAKTKPREEQYNSTYRVVSVLTVLHQDWLNGKEYKCKVSNKALGAPIEKTISKAKGQPREPQVCTLPPSRDELTKNQVSLSCAVKGFYPSDIAVEWESNGQPENNYKTTPPVLDSDGSFFLVSKLTVDKSRWQQGNVFSCSVMHEALHNHYTQKSLSLSPGK
B4: CD3-MCSP 1+1 IgG Crossfab (N-terminal) (SEQ ID NOs 1, 3, 4, 86) (bispecific antibody)
chain 1: DIQMTQSPSSLSASVGDRVTITCRASQDIRNYLNWYQQKPGKAPKLLIYYTSRLESGVPSRFSGSGSGTDYTLTISSLQPEDFATYYCQQGNTLPWTFGQGTKVEIKSSASTKGPSVFPLAPSSKSTSGGTAALGCLVKDYFPEPVTVSWNSGALTSGVHTFPAVLQSSGLYSLSSVVTVPSSSLGTQTYICNVNHKPSNTKVDKKVEPKSCGGGGSGGGGSEVQLQESGPGLVKPSQSLSLTCSVTGYSITSGYYWNWIRQFPGNKLEWMGYITYDGSNNYNPSLKNRISITRDTSKNQFFLKLNSVTTEDTATYYCADFDYWGQGTTLTVSSASTKGPSVFPLAPSSKSTSGGTAALGCLVKDYFPEPVTVSWNSGALTSGVHTFPAVLQSSGLYSLSSVVTVPSSSLGTQTYICNVNHKPSNTKVDKKVEPKSCDKTHTCPPCPAPEAAGGPSVFLFPPKPKDTLMISRTPEVTCVVVDVSHEDPEVKFNWYVDGVEVHNAKTKPREEQYNSTYRVVSVLTVLHQDWLNGKEYKCKVSNKALGAPIEKTISKAKGQPREPQVCTLPPSRDELTKNQVSLSCAVKGFYPSDIAVEWESNGQPENNYKTTPPVLDSDGSFFLVSKLTVDKSRWQQGNVFSCSVMHEALHNHYTQKSLSLSPGK
chain 2: EVQLVESGGGLVQPGGSLRLSCAASGYSFTGYTMNWVRQAPGKGLEWVALINPYKGVSTYNQKFKDRFTISVDKSKNTAYLQMNSLRAEDTAVYYCARSGYYGDSDWYFDVWGQGTLVTVSSASVAAPSVFIFPPSDEQLKSGTASVVCLLNNFYPREAKVQWKVDNALQSGNSQESVTEQDSKDSTYSLSSTLTLSKADYEKHKVYACEVTHQGLSSPVTKSFNRGEC
chain 3: DIVLTQSPSSLSASLGDRVTISCSASQGIRNYLNWYQQRPDGTVKLLIYYTSSLHSGVPSRFSGSGSGTDYSLTISNLEPEDIATYYCQQYSKLPWTFGGGTKLEIKRTVAAPSVFIFPPSDEQLKSGTASVVCLLNNFYPREAKVQWKVDNALQSGNSQESVTEQDSKDSTYSLSSTLTLSKADYEKHKVYACEVTHQGLSSPVTKSFNRGEC
chain 4: not shown

Legend:
[1] = biological target: T1, human MCSP (Melanoma-associated Chondroitin Sulfate Proteoglycan), expressed on tumor cells (human, UniProt Q6UVK1 30-2322); test: cell-based or functional assay
T1 sequence (Q6UVK1 30-2322): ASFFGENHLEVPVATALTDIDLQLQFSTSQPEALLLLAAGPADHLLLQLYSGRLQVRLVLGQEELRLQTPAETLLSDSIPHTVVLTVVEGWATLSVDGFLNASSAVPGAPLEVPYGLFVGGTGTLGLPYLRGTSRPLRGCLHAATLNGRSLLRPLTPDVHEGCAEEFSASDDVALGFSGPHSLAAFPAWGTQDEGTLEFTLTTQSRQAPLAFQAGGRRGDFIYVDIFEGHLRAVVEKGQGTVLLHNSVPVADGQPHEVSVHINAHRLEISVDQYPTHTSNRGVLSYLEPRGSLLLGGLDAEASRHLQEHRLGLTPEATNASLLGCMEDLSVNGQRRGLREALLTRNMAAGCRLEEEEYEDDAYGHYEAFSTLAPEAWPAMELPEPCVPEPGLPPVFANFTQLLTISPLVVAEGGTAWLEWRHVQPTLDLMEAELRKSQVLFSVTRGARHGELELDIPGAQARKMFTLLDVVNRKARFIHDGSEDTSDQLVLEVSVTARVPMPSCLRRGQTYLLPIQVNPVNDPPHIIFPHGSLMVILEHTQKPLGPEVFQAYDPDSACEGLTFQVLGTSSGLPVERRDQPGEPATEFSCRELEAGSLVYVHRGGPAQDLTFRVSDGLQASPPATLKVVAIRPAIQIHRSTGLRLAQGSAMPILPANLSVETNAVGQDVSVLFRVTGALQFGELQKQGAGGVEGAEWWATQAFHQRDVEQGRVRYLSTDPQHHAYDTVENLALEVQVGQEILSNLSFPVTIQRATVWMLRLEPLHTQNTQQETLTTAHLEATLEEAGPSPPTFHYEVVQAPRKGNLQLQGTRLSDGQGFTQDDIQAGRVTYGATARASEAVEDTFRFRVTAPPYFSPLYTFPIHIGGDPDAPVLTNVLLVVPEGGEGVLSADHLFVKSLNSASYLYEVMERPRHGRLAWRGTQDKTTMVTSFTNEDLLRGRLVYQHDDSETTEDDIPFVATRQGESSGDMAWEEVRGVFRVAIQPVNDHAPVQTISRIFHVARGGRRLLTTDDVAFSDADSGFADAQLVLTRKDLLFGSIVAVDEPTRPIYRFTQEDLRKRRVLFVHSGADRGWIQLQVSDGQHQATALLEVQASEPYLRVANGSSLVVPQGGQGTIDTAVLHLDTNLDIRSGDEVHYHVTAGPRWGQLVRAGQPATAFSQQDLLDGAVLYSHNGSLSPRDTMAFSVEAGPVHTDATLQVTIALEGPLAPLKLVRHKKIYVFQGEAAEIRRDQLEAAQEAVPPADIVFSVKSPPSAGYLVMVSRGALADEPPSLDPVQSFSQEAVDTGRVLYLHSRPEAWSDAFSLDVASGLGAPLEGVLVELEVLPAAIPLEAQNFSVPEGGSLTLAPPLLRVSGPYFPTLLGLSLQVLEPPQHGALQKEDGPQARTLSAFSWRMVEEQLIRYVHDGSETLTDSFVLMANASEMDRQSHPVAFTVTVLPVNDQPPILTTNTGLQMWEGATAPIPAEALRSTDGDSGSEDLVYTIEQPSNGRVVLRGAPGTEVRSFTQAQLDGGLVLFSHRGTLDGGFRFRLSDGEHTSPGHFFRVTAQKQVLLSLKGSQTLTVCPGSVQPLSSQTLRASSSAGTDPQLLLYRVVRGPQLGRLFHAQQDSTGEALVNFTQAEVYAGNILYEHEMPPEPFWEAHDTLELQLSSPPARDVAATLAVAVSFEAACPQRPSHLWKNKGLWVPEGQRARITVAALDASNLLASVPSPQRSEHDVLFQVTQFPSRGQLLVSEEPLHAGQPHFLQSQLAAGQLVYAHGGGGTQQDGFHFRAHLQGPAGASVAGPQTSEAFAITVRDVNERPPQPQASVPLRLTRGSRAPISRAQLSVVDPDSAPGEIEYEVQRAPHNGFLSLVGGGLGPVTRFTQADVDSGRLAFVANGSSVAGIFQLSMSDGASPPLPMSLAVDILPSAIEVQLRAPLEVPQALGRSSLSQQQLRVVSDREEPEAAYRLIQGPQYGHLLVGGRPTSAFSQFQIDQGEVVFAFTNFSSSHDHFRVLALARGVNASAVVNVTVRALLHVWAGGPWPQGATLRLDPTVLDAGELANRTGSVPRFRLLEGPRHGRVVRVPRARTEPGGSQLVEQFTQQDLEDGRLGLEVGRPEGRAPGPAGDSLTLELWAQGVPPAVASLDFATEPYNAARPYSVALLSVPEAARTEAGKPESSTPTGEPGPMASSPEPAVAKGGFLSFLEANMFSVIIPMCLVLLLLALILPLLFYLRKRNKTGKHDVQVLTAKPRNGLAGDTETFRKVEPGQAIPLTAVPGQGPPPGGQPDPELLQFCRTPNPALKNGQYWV

[2] = biological target: T1, human MCSP (Melanoma-associated …); test: FACS on WM266-4 cells, FITC/PE anti-human Fc secondary
Procedure: (§1) Binding of the different bispecific constructs to CD3 on Jurkat (ATCC #TIB-152) cells, and the respective tumor antigen MCSP on WM266-4 cells or CEA on LS174-T cells, was determined by FACS. Briefly, cells were harvested, counted and checked for viability. 0.15-0.2 million cells per well were plated in a round-bottom 96-well plate and incubated with the indicated concentration of the bispecific constructs and controls for 30 min at 4° C. For a better comparison, the constructs were normalized to same molarity. Cells were washed with PBS containing 0.1% BSA once. After incubation with a FITC- or PE-conjugated secondary antibody for 30 min at 4° C., bound constructs were detected using a FACSCantoII (Software FACS Diva). A FITC- or PE-conjugated AffiniPure F(ab′)2 Fragment goat anti-human IgG Fcγ Fragment Specific (Jackson Immuno Research Lab #109-096-098/working solution 1:20, or #109-116-170/working solution 1:80, respectively) was used. Unless otherwise indicated, cells were fixed with 100 μl/well fixation buffer (BD #554655) for 15 min at 4° C. in the dark, centrifuged for 6 min at 400×g and kept in 200 μl/well PBS containing 0.1% BSA until analysis. EC50 values were calculated using the GraphPad Prism 5 software.
While binding of both construct to MCSP on cells was comparably good, the binding of the “inverted” construct to CD3 was reduced compared to the other construct.

[3] = biological target: T2, human CD3, expressed by Jurkat cells (human, UniProt P07766 23-207); test: FACS on Jurkat cells, FITC/PE anti-human Fc secondary
T2 construct: whole, on cells; The assay presents the whole CD3 complex on Jurkat T cells; also called human CD3 on cells; huCD3
T2 sequence (P07766 23-207): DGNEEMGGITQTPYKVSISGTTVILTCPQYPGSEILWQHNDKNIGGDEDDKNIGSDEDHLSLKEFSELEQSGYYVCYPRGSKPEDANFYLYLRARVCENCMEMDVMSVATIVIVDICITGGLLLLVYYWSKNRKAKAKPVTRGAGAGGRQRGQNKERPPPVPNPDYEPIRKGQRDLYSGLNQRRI
Procedure: as §1, with “Unless otherwise indicated, cells were fixed with 100 μl/well fixation buffer (BD #554655) for 15 min at 4° C. in the dark, centrifuged for 6 min at 400×g and kept in 200 μl/well PBS containing 0.1% BSA until analysis.” left out
As a control, the equivalent maximum concentration of the corresponding IgGs and the background staining due to the labeled 2ndary antibody (goat anti-human FITC-conjugated AffiniPure F(ab′)2 Fragment, Fcγ Fragment-specific, Jackson Immuno Research Lab #109-096-098) were assessed as well. […]

Row | Binder | EC50 of killing (LDH release) of MV-3 cells, human PBMCs, E:T 10:1, 21 h [1] | EC50 of killing (LDH release) of WM266-4 cells, human PBMCs, E:T 10:1, 21 h [1] | EC50 [2] | EC50 [3]
1 | B1 | 9.2 pM | 33.1 pM | 950 pM | 1660 pM
2 | B2 |  |  | 570 pM | 6100 pM
3 | B3 | 88.4 pM | 53.9 pM |  | 
4 | B4 | 40.9 pM | 28.4 pM |  | 
